Results: the DeepSol protein solubility set

Test: soluble on expression in E. coli; label from the status in PepcDB or PDB records

Row | Sequence | soluble on expression in E. coli
1 | MSLEFLMKKVVFALSALAVVSTSAFAAESGDGTIKFTGEIVDAPCVVSTDSQNQEVVLGQVKKNIFKAIGDKSSSKPFQIKLEDCDITSNTKVNVSFNGVGDTDDATLVSVNTEAGAATGVGIGIYDNANKLVEMNTGKSTTTLAAGQTVLYYTANYVATKDTVTTGYGNAEVDFNLSYEEGGSHHHHHH | soluble
2 | DNGLHYSVGFNLSDTRAEITKYDNPTKSLSSPYYEGQIVGDIWGYESSLFQSADEIASAPDQSKLDGGISKVPGDIRFMDIDGNGVVDYGENTVDKPGDMKIIGNNKARYRYGFNISADWKGFDLGIFFQGVGKRDLMLPYTFKWQYGSMWQVSTAVGNDYWREDNAGGWLPVARFNGSQALGQNQTRYLLDASYLRLKSLSFGYTLPVSLTKQWGIQKCRVYFTGENLLTFKHTPEGFDPELDDPYKYPQQKSLALGLNVVF | not soluble
3 | SAQFINGTINSWFGNDTHEALERSLNLSKSALNLAADNALGNAVPVQIDLIGAASLPGDMGRVLEHYAGSGFAQLALYNAASGKIEKSINPHKLDQPFPGKARWEKIQRAGSVRDLESIGGVLYAQGWLSAGTHNGRDYALFFRQPVPKGVAEDAVLIEKARAKYAELSYSKKGLQT | not soluble
4 | MSLTLFGKTSRRPGLPRQAAGLALAACALASLPAQAKESDGDRLQGIVEPIVARQPLKLGVTVVHLLDNFYKGIAYGIVDEARRSNVEVVQVAVAGAYGNVQQQFAQLQSFKTLGVDYAVLSPAAYSGYDPVVADLARSGIKTISAGIPVNSDKIAFGVLQDDTLIGKVLGKALCDDGAQGKQVIVVPGAAGLEWPRLRYEGFKEVASACGAKLTPAAFRGEMSLADGMAQTQDLLMRTPDAEYVFTPVTFLGIGAVRAARQANRPVKVLTSAMVKENEAMIREGRLLAVASEPGVIMGRLIVQYAIREHEGLPMPPLDKPTRSVPYPHFNVPITVVDKSNEGHHHHHH | soluble
5 | MLDKVIYSLLRTQDPGLAQELYFRLQAKEQSFAEVAQKYSQGPESQTGGLVGPVEQSSLHPAMVQLLSSCQPGQISPPTRITELEHHHHHH | not soluble
6 | MGSDKIHHHHHHMARMFYDEMHDAGGECRSHYREFARWLADTPEEQLLQRRREADLLFHRAGITFTLYGDEQGTERLIPFDTIPRSIPAAEWAHIEAGCIQRVQALNLFLADLYHEQRILKAGVIPAEQVLANDQYQLAMQGLDLPGNVYAHIAGVDLVRDGSGNYYVLEDNLRTPSGVSYMLENRKMMMRLFPELFVRQRVAPIDHYPDLLLDTLKRASDVESPSVVVLTPGRFNSAYFEHAFLAREMGVELVEGADLFVRDERVYMRTTAGPQPVDVIYRRIDDAFLDPLAFNPDSLLGVPGLLAAYRAGNLVLANAIGTGVADDKSIYPYVPDMIRFYLGEDPLLHNVPTWQCRKPKELAHVLAHLPELVVKETQGSGGYGMLVGPAASREEIELFRERLKARPEAYIAQPTLSLSTCPTFVESGVAPRHIDLRPFVLSAPDRVRLVPGGLTRVALREGSLVVNSSQGGGTKDTWVVEE | not soluble
7 | MFQKILIANRGEIAVRIMKTCQKLGIRTVAIYSEADENALHVKMANEAYLVGGPRVQESYLNLEKIIEIAKKTNAEAIHPGYGLLSENPSFPVRCKEEGIVFIGPSEEIITKMGSKIESRIAMQAADVPVVPGITTNIETAEEAIEIAKQIGYPLMLKASAGGGGIGMQLMETEQTLTKAFESNKTRAQNFFGNGEMYLERYIADAHHIEIQLLADTHGNTVYLWERECSVQRRNQKVIEEAPSPFLDEGTRKAMGEIAVQAAKALGYTNAGTVEFLVDEQKNFYFLEMNTRLQVEHPVTEEITGLDLVEQQLLIAYGEKLSFTQDDIKRSGHAIEARIYAEDPKTFFPSPGKITDLTLPTNVRIDHFLENQVTITPFYDPMIAKVIAHGETREEAISKLHDALEELKVEGIKTNTPMLLQVLEDDVFKSGIYTTGFVTKQLVKK | not soluble
8 | MGSDKIHHHHHHMLSHEDNETLVRVGPGTPTGQFMRLYWLPFLPSSDLTVDGQPQRVRLLGEDLIAFRDSEGRVGLVDHVCPHRGAPLVFGRNENCGLRCVYHGWQFGVDGQVIDTPAEPAESRLKDKVRIRSYPCRERNGIVWAYMGEADANALPPLPNLEWNMVPLENVHFSFRVQECNWLQAVEGEIDSAHAPILHGRIDSQGAINEWTAKRDLRPVFECQRREFGISIASRRVLDDSHHYWRVNQFLFPFYTLVPPQSKYPELSGHAWVPVDDENTLCLMFSYTPAAPLYEKTRKLFEDGHAGRETGHASAHAFAPRPVTQPYAKYWTRFNLESAFQFDYDAQTKTWFSGLPGLWVQDAACQSGVAPIYDRRKENLGISDTGVAMTRRLLLENVRKLASERVSPVRVDDPDLWMVRAVSLTLPAGAPWQSDGAEHMRARLGADFGYTP | not soluble
9 | MSAFQGNMFVLVNVDQHRDLIGPIINQLVADYGTPVSIVDNIQKICPKCSCTPHANPDSSSVPTTTSSDEHQEEPPTPKTIAPAPIATPVLKPLLPQRESIVSNGIHPVVVKRKQSIAEEIDTPEIKKSRVVEPVKVKTETIILDDDDGNVLDTVLAALQNGNHEMQFTGSGGSSDDGASNSSNIYDVDDEDYGTSQWNPDFLTNFITSQPNIFSVTGQNIKSSPSKNAGQTPNGKRQVPPMLTVNGKTRRGRIVYSTQELNILEKYYEEDPNACADPRKRETMCKTLSIDYHRLKVWFQNRRRKDKVRSQEEAATTFNGLDYSEDS | not soluble
10 | MTETTHVTSCPLNCWDVCGLKVTVNEGKVVRVDGDEHHPITKGNICGRGRMLKERVNAKERLLYPLKKVNGQFVRISWEEALDDIAGKMRKLKEQFGPTAVLHSHDYANNGLLKNLDRRFFNCYGGATELIGSLCWGAGIEAQTWDFGNAYSHAPEDIDNSRHIVIWGRNVARTNMHLFERLLAAKKRGATIVVIDPLFGPTARIADQYVCIKPGMDAFLAMGIMKELLRLGLEDRAFIKQHTIGFDDVKQLLQTISLAEIERHTGVSRDQMTKLARLYGDRPTATYLGLGMQRYANGGNTIRWIDALVAASGNVGIPGGGANFGNLQVGECFDKAALTLPERKTASRTWTMMKQGEEILRADDPPIGMVIVTCGNPLAQVPNTNLMKKAFASIETVVVFEQFMTDTAAMADYVLPVAASFEEEDVYCSSMYHAYLNYGPKLVDPPGEAKPDLWIWTELAKRLGFGDDFAYTREQFLAMALRPLEHHGITLKRLKTEHRVLLPVEPVPWRDRRFQTPSGKYEFTSTIAKKKGMDGRLQIMYPAESEESNPALAAKYPYRLLTIHPLRSNHSQHYPLIPALQTVRIEVAADVAAAKGLADGDRARVYNDRGSLVGTVKVLDGAYPGTINIDEGQWGVFGGPVNVLTSDLESDNGCGSALYDCLVNIEKVTSEAK | soluble
11 | MKHHHHHHPMGHMQTLIFLDLEATGLPSSRPEVTELCLLAVHRRALENTSISQGHPPPVPRPPRVVDKLSLCIAPGKACSPGASEITGLSKAELEVQGRQRFDDNLAILLRAFLQRQPQPCCLVAHNGDRYDFPLLQTELARLSTPSPLDGTFCVDSIAALKALEQASSPSGNGSRKSYSLGSIYTRLYWQAPTDSHTAEGDVLTLLSICQWKPQALLQWVDEHARPFSTVKPMYGTPATTGTTNLR | soluble
12 | MSLEHQLANVYETKIRRNEHPTIPRPLVTFEPAAIRSKPSSPISELEVFTSEQLIKVTSSIRWKTLSSAVLGAGFKWHQTFVNRHVSKDYYCDDVEREFQTFLSNVGVDGTDALGMMTAAILEDVAITEATYESFKVRVFVTAGISNAVDAAKAHLRKRNEATVGTINTWVFIEGTLPDAAYVQALMTATEAKGRALAEKEILDPVTGTLATGTSTDSVMIASSQTGTYFPYAGTITPLGQAIGKLVYDATIQAVTDNEKRRLEREGHHHHHH | soluble
13 | LGTERQREHPFIVTEPGEVARGKKNGLDYLFHLYEQCREFLLQVQTIAKDRGEKCPTKVTNQVFRYAKKSGASYINKPKMRHYVHCYALHCLDEEASNALRRAFKERGENVGSWRQACYKPLVNIACRHGWDIDAVFNAHPRLSIWYVPTKLRQLCHLERNNAVAAAAALVGGISCTGSSTSGRGGCGGDDLRF | soluble
14 | MLLGMSLEELTTVALRMGMPRFAGKQLAEWIYVRRATDFAEMTNISQANRQKLAEIYDLGRYPWSDVQCSVDGTKKYLFPVGEGRFVESVLIPEGDRATLCISSQVGCKMDCLFCMTGKQGWNGNLSAAEILNQIFSVDEAAELTNLVYMGMGEPLDNTDEVLRSIEALTEPWGMGWSPKRITVSTIGAKGLERFLAESRCHLAVSLHSPFPEERRKLMPGEKAFPIMQTLDRIRAYDFSGQRRVSFEYIVFDGLNDDMRHADELAAILRGIPCRINLIRFHKIPAVSLRSSDTARMEAFRKRMESHGFTCTIRASRGEDIFAACGMLSTSKAESSEEKSS | not soluble
15 | MKKGVLFDLDGTILDFEKSEDQALKRTFLKYGIPLTEDQVFLYREINRKWWKLLAEGKVSKDVVVVARFEEFLKTLNIPLDPRKVAKDYLEFLSEEAHFLPGAEEFLERLKKKDLRMAVVTNGVRFVQEKRSRKLKLDRFFEFVLTSEEAGVEKPDPRIFWLALERMKLKKEEVLYVGDDFSSDLEGARNAGIDFVLFSSDGDSSGDFPVARNFKELEKIVEEFL | soluble
16 | GMNKKTQLLEVIAALPEELVDQALNYVQMLQNPIQITPGVCGGQARIRNTRIPVWTLVAYRQQGAPDKELLANYPGLTAEDLSAAWHYYEQNPEQIDREIAQDDLV | soluble
17 | MGKRNLDETMNESTVSEANGDATAPTTEKDEYQALCELVNPIAQPLANRKLAKKVYKLIKKASAGDKTLREGIKDVQKELRRNEKGICILAGNVSPIDVYSHIPGICEEKEIPYVYIPSREQLGLAVGHRRPSILIFVKPSGDFKELYDEVAEALRHLTVEAA | not soluble
18 | GSNEIKRGAVDLIKTGVNEKAMAGAVFSLFKKDGTEVKKELATDANGHIRVQGLEYGEYYFQETKAPKGYVIDPTKREFFVKNSGTINEDGTITSGTVVKMEVKNNEEPTIDKKINGKLEALPINPLTNYNYDIKTLIPEDIKEYKKYVVTDTLDNRLVIQGKPIVKIDGAEVNANVVEVAIEGQKVTATVKDFTKMDGKKEFHLQIKSQVKEGVPSGSEILNTAKIHFTNKNDVIGEKESKPVVVIPTTGIIELTKIDSANKNKMKGAEFVLKDNNGKIVVVAGKEVTGVSDENGVIKWSNIPYGDYQIFETKAPTYTKEDGTKTSYQLLKDPIDVKISENNQTVKLTIENNKS | soluble
19 | MSPENPFLNHEKKEQERQAKRDAVLLAAVKIFNEQGFHSTSLDDVAKSLGISKPTIYHYLGNKEQVLLTCVEIGLQQLIEAAKDVEKQSISGFEKLRRFLFLYGCRNLDDFGRCVILTHDDALSKEGLVKFKALKRVVHEALLNIIRDAQLDQSINAEHDPKILAATLTGAINWSAKWYNPNGVLSKEETIQKMVDILTYGFEKK | not soluble
20 | MGSDKIHHHHHHMMPQTSLHQHVMNWAISVPGDKTLKRDIFNNIWITASQRYEYQHLTFMAQGIVELLNTEIGGVDVSIPINLFLQSTEATKYDAEMLDFAQRIVTVKDRQHIALLSENILQKMPYQPDSTSVHTTATQAFQAGQGVCQDHAHVLIAMCRALQLPARYVSGYLFDQNSPHLASHAWAEVFLDNQWYCFDVSNQLFTPKHHIYLAVGRDYLDVAPIRGVREKGGTENMMSVVQVLAC | not soluble
21 | MASETVSNHQEKALALLQADAEKILRLIKVQMDHLTMPQCPLYEEVLDTQMFGLSREVDFAVRLGLIAEEQGKVMLGELERELSALHEAFTNKQQ | not soluble
